Assay results published in publication PMC11085213, “Plastid Molecular Chaperone HSP90C Interacts with the SecA1 Subunit of Sec Translocase for Thylakoid Protein Transport” (Plants, 2024).

B1: HSP90C (Arabidopsis thaliana) (protein)
chain: CDAAVAEKETTEEGSGEKFEYQAEVSRLLDLIVHSLYSHKEVFLRELVSNASDALDKLRFLSVTEPSLLGDGGDLEIRIKPDPDNGTITITDTGIGMTKEELIDCLGTIAQSGTSKFLKALKENKDLGADNGLIGQFGVGFYSAFLVAEKVVVSTKSPKSDKQYVWESVADSSSYLIREETDPDNILRRGTQITLYLREDDKYEFAESTRIKNLVKNYSQFVGFPIYTWQEKSRTIEVEEDEPVKEGEEGEPKKKKTTKTEKYWDWELANETKPLWMRNSKEVEKGEYNEFYKKAFNEFLDPLAHTHFTTEGEVEFRSILYIPGMGPLNNEDVTNPKTKNIRLYVKRVFISDDFDGELFPRYLSFVKGVVDSDDLPLNVSREILQESRIVRIMRKRLIRKTFDMIQEISESENKEDYKKFWENFGRFLKLGCIEDTGNHKRITPLLRFFSSKNEEELTSLDDYIENMGENQKAIYYLATDSLKSAKSAPFLEKLIQKDIEVLYLVEPIDEVAIQNLQTYKEKKFVDISKEDLELGDEDEVKDREAKQEFNLLCDWIKQQLGDKVAKVQVSNRLSSSPCVLVSGKFGWSANMERLMKAQALGDTSSLEFMRGRRILEINPDHPIIKDLNAACKNAPESTEATRVVDLLYDTAIISSGFTPDSPAELGNKIYEMMAMAVGGRWGRVEEEEESSTVNEGDDKSGETEVVEPSEVRAESDPWQD
notes: His6-tagged HSP90C (pProEX HTb), E. coli BL21(DE3)-pRIL, Ni-NTA and Superdex 200

Legend:
[1] = molecular target: His6-tagged mSecA1 (Arabidopsis) (UniProt Q9SYI0)
Sequence of His6-tagged mSecA1 (Arabidopsis) (Q9SYI0 73-1022): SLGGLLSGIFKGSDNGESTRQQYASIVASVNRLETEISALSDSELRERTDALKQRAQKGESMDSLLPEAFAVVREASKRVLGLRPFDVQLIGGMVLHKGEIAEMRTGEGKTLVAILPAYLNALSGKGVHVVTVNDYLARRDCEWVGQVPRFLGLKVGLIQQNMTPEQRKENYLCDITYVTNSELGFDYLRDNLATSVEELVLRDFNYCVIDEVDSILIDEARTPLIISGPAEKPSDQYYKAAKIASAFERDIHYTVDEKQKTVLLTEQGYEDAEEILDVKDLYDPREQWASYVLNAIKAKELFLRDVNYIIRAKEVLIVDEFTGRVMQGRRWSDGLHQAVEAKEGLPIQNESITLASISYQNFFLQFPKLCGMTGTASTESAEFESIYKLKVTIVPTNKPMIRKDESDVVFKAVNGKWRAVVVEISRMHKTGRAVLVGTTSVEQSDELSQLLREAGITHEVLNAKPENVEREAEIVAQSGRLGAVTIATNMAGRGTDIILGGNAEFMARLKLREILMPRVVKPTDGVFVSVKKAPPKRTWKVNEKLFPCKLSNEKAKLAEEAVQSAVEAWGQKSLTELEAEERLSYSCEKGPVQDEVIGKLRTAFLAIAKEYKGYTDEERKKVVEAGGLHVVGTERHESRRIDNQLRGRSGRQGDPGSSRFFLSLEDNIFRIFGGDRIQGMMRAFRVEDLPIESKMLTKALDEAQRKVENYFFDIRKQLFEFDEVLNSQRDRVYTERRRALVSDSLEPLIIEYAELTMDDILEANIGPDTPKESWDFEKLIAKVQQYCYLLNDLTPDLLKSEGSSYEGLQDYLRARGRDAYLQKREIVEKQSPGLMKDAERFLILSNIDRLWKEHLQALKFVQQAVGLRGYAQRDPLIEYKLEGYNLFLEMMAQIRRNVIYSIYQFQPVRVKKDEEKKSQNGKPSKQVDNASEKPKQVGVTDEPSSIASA

[2] = substrate: Nc1ncnc2c1ncn2[C@@H]1O[C@H](COP(=O)(O)OP(=O)(O)OP(=O)(O)O)[C@@H](O)[C@H]1O; test: ATPase, NADH-coupled (pyruvate kinase / lactate dehydrogenase); radicicol-sensitive activity; format: biochemical, Arabidopsis thaliana; settings: pH 7.5, 5 mM MgCl2, 500 mM KCl, HSP90C alone, called ATP binding affinity

| Molecule | combined ATP turnover rate (kcat) of the equimolar mixture SecA1 + HSP90C (1.41 μM each), NADH-coupled assay at 5 mM ATP; sum of the two proteins' own average rates 2.93 min^−1 [1] | rise of the ATP turnover rate of SecA1 + HSP90C + PsbO1 (equimolar) relative to the SecA1 + HSP90C mixture, NADH-coupled assay [1] | Km [2] |
| --- | --- | --- | --- |
| His6-tagged HSP90C (from UniProt Q9SIF2 61-780) (natural protein) | 0.0581 s⁻¹ | 16% |  |
| B1 |  |  | 4.01 mM |
